Molecular target: IraP with a C-terminal His10-tag, purified (E. coli) (UniProt P0AAN9)
Sequence (P0AAN9 whole entry): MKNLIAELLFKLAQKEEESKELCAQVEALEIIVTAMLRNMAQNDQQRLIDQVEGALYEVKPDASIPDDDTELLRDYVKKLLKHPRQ

RssBN, N-terminal domain of RssB (residues 1-129), untagged, purified (from UniProt P0AEV1 1-129) (domain or fragment)
rate of σ^S turnover in the presence of IraP and AcP with a 5-fold excess of RssBN (Figure S4): 2 fold
